Measurements taken from a protein production outcome set (Wang et al. 2014).

Experiment: label from the status in PepcDB records
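Further: failed if final PepcDB status was selected cloned or expressed and not failed if soluble or beyond.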

Row | Sequence | protein production
1 | MAQKENSYPWPYGRQTAPSGLSTLPQRVLRKEPVTPSALVLMSRSNVQPTAAPGQKVMENSSGTPDILTRHFTIDDFEIGRPLGKGKFGNVYLAREKKSHFIVALKVLFKSQIEKEGVEHQLRREIEIQAHLHHPNILRLYNYFYDRRRIYLILEYAPRGELYKELQKSCTFDEQRTATIMEELADALMYCHGKKVIHRDIKPENLLLGLKGELKIADFGWSVHAPSLRRKTMCGTLDYLPPEMIEGRMHNEKVDLWCIGVLCYELLVGNPPFESASHNETYRRIVKVDLKFPASVPTGAQDLISKLLRHNPSERLPLAQVSAHPWVRANSRRVLPPSALQSVA | failed
2 | MAQLPASMRRKRAAITSIHEKPPSRKQKLVNAGGWILLCIAFVVLAAGVYGLYKVITDAKIADLSIVGTRSVVEQNQLQQHIQPIIKDNYFTSDLEQIRDKALEISWVDRVVVSRAWPNSIRVRIMPRHAIARWGTGRLLSDSGDVYAEAELKNHPNLPMLHGPITQSKAMMRRYNEINQLFQPVNLRLTELYLTERMTWFMQFDSGLRVIVDQDQTMSKLQRLSHLAQTDLKPVWSKISAIDLRYRNGLSLQWKTGVPPKILNGQFVVTSDDTNVASGMTAKP | failed
3 | MAQLSARAREDPAAVVDCLPELRQELATLDPRPREHAAEVVATIAHHYPEAARTAVDDIRPLLSDANPGVRAEAARALAEVATTFPDAVYPSVCDLLDRLTDDHYESRVNAAWALAELATEQPAGLRPAVEALCGVLTDDVAAVRAGGVWALAELAEEYPEPVRNAVPALRRLLDDDATLVRVHAARALAVLAETHPDAVEPARVDLEAFGNGEPEDLRKAVTFALAQLDEQTTEAKATSTAGATIDDPLPEEEWIFGGSDTETTATSSGLSAGGIPETVPDVPTPDLSYDDLKKQTTVENGDLSAVYRAAASTENGTVPVALKELRPSDGATLDSDLAHEAYTEARRWEGLDDHDHIVTLVDYGREPTVWFAMEYMDAGHLAEVADSLAFEHRLWSALVLTRAIRRAHRAGILHLNLKPENVLFRTVDDGWAVPKISDWGMEIQPHQDDHDVVPRYAAPEQLADDGRTDGVTDVYQLGRAFYQLFTGRPAFETTPECPADIVEAEPPAPSDIASVPAAVGDIIRTAMAPSQPDRYGAVVYLQEELETICADHGVPTT | failed
4 | MAQPSTTYKFELNLTDLDRGVYESVKQTIARHPSETEERMTVRLLAYAFWYNEQLAFGRGLSDVDEPALWEKSLDDRVLHWIEVGQPDADRLTWCSRRTERTSLLAYGSLRVWEGKVIPAIKNLKNVNIAAVPQDVLEVLAKDMPRVIKWDVMISEGTVFVTDDRGQHEVQLQWLTGERG | not failed
5 | MAQRGDPPPLRQYVAVRARLVGSGLVVGLLLGGLGMAGWTLYTGDARSSEATVFALGAMVFGFGLLGWSGSILAGRGIEAMQEHMDTRSNWTERDSRRAMARLCGGGGGIMVGTSVVAALL | failed
6 | MAQRIFTLILLLCSTSVFAGLFDAPGRSQFVPADQAFAFDFQQNQHDLNLTWQIKDGYYLYRKQIRITPEHAKIADVQLPQGVWHEDEFYGKSEIYRDRLTLPVTINQASAGATLTVTYQGCADAGFCYPPETKTVPLSEVVANNAAPQPVSVPQQEQPTAQLPFSALWALLIGIGIAFTPCVLPMYPLISGIVLGGKQRLSTARALLLTFIYVQGMALTYTALGLVVAAAGLQFQAALQHPYVLIGLAIVFTLLAMSMFGLFTLQLPSSLQTRLTLMSNRQQGGSPGGVFVMGAIAGLICSPCTTAPLSAILLYIAQSGNMWLGGGTLYLYALGMGLPLMLITVFGNRLLPKSGPWMEQVKTAFGFVILALPVFLLERVIGDVWGLRLWSALGVAFFGWAFITSLQAKRGWMRIVQIILLAAALVSVRPLQDWAFGATHTAQTQTHLNFTQIKTVDELNQALVEAKGKPVMLDLYADWCVACKEFEKYTFSDPQVQKALADTVLLQANVTANDAQDVALLKHLNVLGLPTILFFDGQGQEHPQARVTGFMDAETFSAHLRDRQP | failed
7 | MAQRQPHSPNQTLISITNDTESSSSVVSNDNTNKGWSGDNSPGIEALCAIYITYAVIISVGILGNAILIKVFFKTKSMQTVPNIFITSLAFGDLLLLLTCVPVDATHYLAEGWLFGRIGCKVLSFIRLTSVGVSVFTLTILSADRYKAVVKPLERQPSNAILKTCVKAGCVWIVSMIFALPEAIFSNVYTFRDPNKNMTFESCTSYPVSKKLLQEIHSLLCFLVFYIIPLSIISVYYSLIARTLYKSTLNIPTEEQSHARKQIESRKRIARTVLVLVALFALCWLPNHLLYLYHSFTSQTYVDPSAMHFIFTIFSRVLAFSNSCVNPFALYWLSKSFQKHFKAQLFCCKAERPEPPVADTSLTTLAVMGTVPGTGSIQMSEISVTSFTGCSVKQAEDRF | failed
8 | MAQRVQLTATVSENQLGQRLDQALAEMFPDYSRSRIKEWILDQRVLVNGKVCDKPKEKVLGGEQVAINAEIEEEARFEPQDIPLDIVYEDEDIIIINKPRDLVVHPGAGNPDGTVLNALLHYYPPIADVPRAGIVHRLDKDTTGLMVVAKTVPAQTRLVESLQRREITREYEAVAIGHMTAGGTVDEPISRHPTKRTHMAVHPMGKPAVTHYRIMEHFRVHTRLRLRLETGRTHQIRVHMAHITHPLVGDPVYGGRPRPPKGASEAFISTLRKFDRQALHATMLRLYHPISGIEMEWHAPIPQDMVELIEVMRADFEEHKDEVDWL | not failed
9 | MAQTCSILYIPYMLLLSSLFAAGIATITEGELLSSMIGVQGLIYCKRGSKLTPIQGAVARVTCERTDEYGYEAEDVTVLSQATDAKGYFLATLSSSEVKDYKKVIKIKECRAFLELSPSDTCSFPTEINRGISGAILQNYRLLENKLKMKLFTVGPFVFSSEETQDKSIPNGY | failed
10 | MARDNENILEEWCLIESNPCIFYDMLKRMGATEISVEDVYSLSYFDDYINNKEIINMNHILGVDTYLGENNKTLDKENNVVDVIELYKNNICMEDKYNKLLKHHSYIYGIIFLFNIGKHYKNNKYIEHNVPDNLFFAKQVIPNACATQAILSIVLNKDIELNDEIKNIKTFSLNFDSSMKGLTLSNCTFLRNIHNSYKPPIYLDKEDVHHDKKKSEDSFHFVSYISFQDKVYLLDGLQSGPVLINADEQNKPNPNNNNNNKDNDNDNNNNNNNNNNNNNNNNNNNNNNNNNNIGMNGKDWIEISREHIKKEIDEICNSQTNNDVRFNIIAVMKDKEYIIQEYINIHRIVKQRVNIKLINLGENIELSDEINEDEFPLLNDIPSIENLPNNVDTLYNIVNKSTLEINYLQSLLHEQKEIKKLWNIELTFKFFNFYPFIMSSLNLMAKHKLLKDAYQKEKLKNATKS | failed
11 | MARIDHVGLMVKDIDASIAFYQNVIGMTLKGRMTHTNGVMKLAFLGFENRDETELELIEGYNDNLPQEGKVHHFAVSTDDIEAEFDRVKGAGIKLMEDEITVLPNGFRYFFLFGPEGEMVEFFQRT | failed
12 | MARILKKNKNELLDILEDYMTDCKYRDLRRTTIRAYEQSLRLLFKFLEDDYKVIYVEDVKEEHIRNYIDFTKERGKYSYVANENNINSNVPQNRGDFGKKVSLCTLDNYLGNIKMFFTWCKDNKLISKDPSFKIKRIKYSRKAKAEITIDEFNKLLKSLDLTLFSEYRDYIVIQLLMDTGMRVGECLELREEDIDIRNKTIFISGEIAKGRRDRYVFFSNTMQRMLQKWLNYKDRYVESNYIFVTNRGGKYQVHSFEKHMRNYLKKAKIDKQITPHTLRNNFAKRFLMSGGDIYTLSRLLGHSDIRTTQSAYLDLTTSDIRKNYLKFSPLENMKKKNW | failed
13 | MARKIGSRYTAHQILGRGSAGTVWLGEGPDGPVAIKLLREDLASDQELVSRFVQERTALLGLDHPHVVSVRDLVVDGNDLALVMDLVRGTDLRTRLDRERRLAPEAAVAVVADVADGLAAAHAAGVVHRDVKPENVLLDMQGPLGPGGSHPALLTDFGVAKLIDTPRRTRATKIIGTPDYLAPEIVEGLPPRAAVDIYALATVLYELLAGFTPFGGGHPGAVLRRHVTETVVPLPGIPDELWQLLVQCLAKAPASRLRASELSARLRELLPMLAGMAPLDVDEPDAEQPEDAPDASAASPAAPVSTAEPVRRRGAVPLVPGAKPADSNRDTHTSMRVPAPDELAGGARGTARAPRASGAPRPGSARNRAATRRRRIAVGAGAVALVAAIGVGTWLATGGDEDGGGPQDTRNSAPAAP | failed
14 | MARKRLIIEMGMGIDQHGQEPTIAASRAVRNAIAHNALPGVWEVAGLSHPNEMIIEVQVAVPYPEQVREEEVLAVLPFGRKTLTVESGGMIVQGRAIPELNDKNDEMLIAIAAVTVLIENE | not failed
15 | MARPQDPPRGFFPFGNPFKNLSSKNSVLSSKLLPLLNNFETNLASSISKLVPKEKSDILTVSWMKQAMESLCETHNGIKTLITDLELPVSDWEDKWVDVYLDISVKLLDLCNAFSSELTRLNQGHLLLQFALHNLEANSPQNLSKAQSSLDSWKQHIVSKNPRIENCRAILSSLVQTLNLPKVKNSAKGKVLMRALYGVKVKTLYISGVFAAAFSGSSQNLMYLTVSNELPWAQSFMEVQNTMNAEIKNIFLSDGLTVLKELEAVASGVKKLYPAIQQGSIDPISLQPLKDSVTELSNGIDLVSKEVDCFFKILLSGRDTLLENLRSMGASTLQATSPKKAAGKNYRGF | failed
16 | MARRNRGVTRRERPNLLITGTPGTGKSTTASALAEATNLRYICIGDLVKEKEFYHGWDNELECHFINEDSVIDELDDAMIEGGNIVDYHGCDFFPQRWFDRVVVLRTENSVLYDRLTNSKVLIVFSQPTKAGVIQEPSLVTTFNAKCIKSYSKKHMTVMMRKLSLNYKGEAMLAKTVFPRGLLVLRSFSSVASKTLLKVGDVLRETRVFSSEDIKAYAEVSHDWNPLHFDPESARKAGFENRLVHGMLVSSMFPRIISAHFPGAVYVSQSLHFRSPVYIGDEILGLVQAIALRETKNKYIVKFSTKCFKNHNELVVIDGEATAILPNLDMLQKSPSE | failed
17 | MARRPFSSQSLVLIVIAIAINMIGGQLISMLKLPIFLDSIGTLISAVLLGPFIGMLTGLLTNLLWGLLTDPIAAAFAPVAMVIGLVAGWLARAGWFRTLPKVIVSGVVITLAVTLVAVPLRTALFGGVTGSGADLFVAWMHSMGQNLVESVAITVIGANLVDKILTAIIVWVLLRQLPLRTTRHFPAMSAVR | failed
18 | MARTIENMAKPASDMPPYDKAAALRGLAGARRVALLMAPRLGDTLLMMNMARNLAAHGREVSIFGDYIHGLRDWFPGLDIRPSLSEEQAGQVLPGYDCAAQMHVGWPYALHAHQPNYFYYDAHVAITGRGFVKLFQIRDFCREQLGLAQAGADNGLRPPPQVQPHRSHPRRVALHPTSTGAQRCWAPRHFKELGLRLLHEGYEPNYIVAPHERAEWSWVLDHGLHLPQFPSLSEVAGFIHASGWFIGNESGIGHLASNVGVPTLSLTGRPTRTRAWRPAWSTSRIVYPALIPGGRWRDRLWREWLSPRRVMSAFHKLQADDRRQPVGVPWGKI | failed
19 | MARVLVDFQPVGRRVEVDAGQTILSAIQQLGLSLGAGGLTAPCGGRGLCGRCRVRIASGEVGEVNPAERRFLTPAQLEKGYRLACQATVIGPVKVEIPPESMLGVQKLQVEGLDIAVTPEPPVKRYNLPLSKTTIENPLPLWQQVTGELEATYGLDRPGVDFGLAREWKPMATEGECVVTVRGPEVINIYTGRLAPPPVGLAVDLGTTKVAGFLINLETGATLAADGIMNPQITYGEDVMARLGYALEGEEEYRRIQEVEIEGLNRLAATLAAKAGVATTDIEEAVIVGNTAMHHLLLHLPVEQLARAPYVPALTTPVEIKTRNLGLNLSPGAFVYLQPVIAGFVGGDHVAMILGSRIDEARKVTLGLDIGTNTEIVLSYGGKMLSCSCASGPAFEGAHIAQGMRAVTGAIAAVRLSDDGRDVFWESIGGVPPLGICGSGILDAVAELYRTGILNASGRLDLNHPRVRRPAGGGPPEFLLVPAAETGIDGDLVVTQKDINEIQLAKAAIATGTLLLLEAAGLTVKDLEEVVVAGAFGTHLKLESAITIGMFPNLPLTAFRQVGNAAGTGARLALLSLTERKRGEAIARQVGYLELMTRPSFHEVYVKSLLLP | failed
